Marks after values point to notes of the source that are not given here.
Experiments:
[1] = system: GST-GSK3 fusion protein (Cell Signaling Technology)

Row | Substance | non-radioactive in vitro kinase assay, phosphorylated substrate detected by Western blot [1] | Activity (phosphorylation of MPB) (myelin basic protein) | radioactive in vitro kinase assay, 32P incorporation by autoradiography (FIG. 11B) (myelin basic protein)
1 | PKNbeta kinase domain comprising amino acids 535-889 | Only the full length wildtype protein kinase N beta or the kinase domain as defined in example 9 were suitable to phosphorylate the substrate | +* | the full length wildtype protein kinase N beta as well as the kinase domain show activity
2 | PKNbeta kinase domain having a mutation at position 588 from lysine to arginine | – | -* | –
3 | PKNbeta kinase domain having a mutation at position 588 from lysine to glutamic acid | – | -* | –
4 | PKNbeta kinase domain with threonine 718 changed to alanine | – | -* | –
5 | PKNbeta kinase domain with threonine 718 changed to aspartic acid | – | -*! | –
6 | PKNbeta kinase domain with threonine 718 changed to glutamic acid | – | -*! | –

— patent US20040106569
